Common to all, as to assay: FRET or BRET; AZ-mRuby2 titrated (100 pM-1 µM) to a fixed concentration of Clover-AZIN1 variants (50 nM); TBS pH 7.4 + 0.15% Tween-20; equilibrated at room temp for 1 h; donor quenching fitted
Common to all, as to conditions: both partners purified
A general note: BRET reads energy transfer from a luciferase to a nearby fluorophore.

Assay [1] has as its target T1, Clover-AZIN1 S367N mutant, recombinant fusion protein (human, UniProt O14977 1-448, S367N).
T1 construct: source: E. coli (pBAD vector), purified recombinant; not shown: Clover, N-terminal, kept
T1 sequence (looked up): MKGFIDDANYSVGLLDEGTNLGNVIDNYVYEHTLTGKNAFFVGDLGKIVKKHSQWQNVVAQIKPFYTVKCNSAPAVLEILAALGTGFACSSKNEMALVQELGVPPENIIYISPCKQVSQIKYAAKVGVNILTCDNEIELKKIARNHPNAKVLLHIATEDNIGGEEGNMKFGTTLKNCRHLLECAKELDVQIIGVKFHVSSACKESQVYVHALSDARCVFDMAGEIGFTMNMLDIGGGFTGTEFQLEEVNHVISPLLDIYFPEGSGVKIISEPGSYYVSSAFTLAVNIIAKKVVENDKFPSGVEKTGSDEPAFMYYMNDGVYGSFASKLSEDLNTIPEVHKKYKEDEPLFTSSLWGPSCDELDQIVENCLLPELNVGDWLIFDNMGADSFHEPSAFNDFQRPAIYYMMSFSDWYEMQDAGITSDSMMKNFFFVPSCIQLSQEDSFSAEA

Assay [2] deals with T2, Clover-AZIN1 (wild type), recombinant fusion protein (human, UniProt O14977 1-448).
T2 construct: The vector encodes the 6X-HIS-tagged fluorescent protein with a TEV protease cleavage site; also called wild-type protein; hAZIN1; source: E. coli (pBAD vector), purified recombinant; not shown: Clover, N-terminal, kept
T2 sequence (looked up): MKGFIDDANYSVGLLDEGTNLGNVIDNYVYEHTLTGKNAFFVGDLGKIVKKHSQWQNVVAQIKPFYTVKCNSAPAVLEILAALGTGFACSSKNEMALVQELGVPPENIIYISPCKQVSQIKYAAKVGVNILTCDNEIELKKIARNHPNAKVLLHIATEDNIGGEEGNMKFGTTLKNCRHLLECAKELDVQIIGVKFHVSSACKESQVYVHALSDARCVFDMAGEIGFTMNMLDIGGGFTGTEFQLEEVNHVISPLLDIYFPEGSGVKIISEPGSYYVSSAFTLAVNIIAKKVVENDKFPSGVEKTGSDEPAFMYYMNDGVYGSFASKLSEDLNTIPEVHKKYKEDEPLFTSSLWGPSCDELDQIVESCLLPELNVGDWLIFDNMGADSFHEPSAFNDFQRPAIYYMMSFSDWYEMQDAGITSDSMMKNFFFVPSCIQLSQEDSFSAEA

The target of assay [3] is T3, Clover-AZIN1 S367A mutant, recombinant fusion protein (human, UniProt O14977 1-448, S367A).
T3 construct: source: E. coli (pBAD vector), purified recombinant; not shown: Clover, N-terminal, kept
T3 sequence (looked up): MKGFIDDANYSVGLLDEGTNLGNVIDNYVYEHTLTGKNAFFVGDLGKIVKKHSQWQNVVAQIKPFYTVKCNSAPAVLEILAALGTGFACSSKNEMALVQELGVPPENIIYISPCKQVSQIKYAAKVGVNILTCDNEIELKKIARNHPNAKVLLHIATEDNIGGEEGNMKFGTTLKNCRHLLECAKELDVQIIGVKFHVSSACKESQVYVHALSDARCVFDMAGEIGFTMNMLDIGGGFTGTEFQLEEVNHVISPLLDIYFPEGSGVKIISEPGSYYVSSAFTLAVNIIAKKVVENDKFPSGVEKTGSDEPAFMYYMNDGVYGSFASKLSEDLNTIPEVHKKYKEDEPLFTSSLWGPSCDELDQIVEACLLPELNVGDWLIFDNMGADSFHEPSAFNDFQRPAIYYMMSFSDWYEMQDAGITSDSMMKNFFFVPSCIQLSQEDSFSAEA

Assay [4] addresses T4, Clover-AZIN1 S367G (edited AZIN1), recombinant fusion protein (human, UniProt O14977 1-448, S367G).
T4 construct: Point mutation introduced by PCR-based site-directed mutagenesis; source: E. coli (pBAD vector), purified recombinant; not shown: Clover, N-terminal, kept
T4 sequence (looked up): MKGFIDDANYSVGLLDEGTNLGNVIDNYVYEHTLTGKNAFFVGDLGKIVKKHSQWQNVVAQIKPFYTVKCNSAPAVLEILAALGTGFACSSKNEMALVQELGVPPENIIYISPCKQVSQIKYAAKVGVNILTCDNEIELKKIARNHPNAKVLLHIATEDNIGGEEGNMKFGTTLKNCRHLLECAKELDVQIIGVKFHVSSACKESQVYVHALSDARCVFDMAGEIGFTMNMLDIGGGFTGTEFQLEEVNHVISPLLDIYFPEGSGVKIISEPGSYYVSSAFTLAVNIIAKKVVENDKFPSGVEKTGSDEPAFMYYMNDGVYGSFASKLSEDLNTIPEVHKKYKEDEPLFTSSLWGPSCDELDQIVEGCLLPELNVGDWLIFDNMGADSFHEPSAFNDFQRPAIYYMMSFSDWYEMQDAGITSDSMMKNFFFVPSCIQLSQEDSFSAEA

B1: antizyme-mRuby2 (AZ-mRuby2), recombinant fusion protein (natural protein)
chain: not shown
notes: antizyme (human OAZ1 gene, codon optimised for E. coli and synthesised de novo); also called hOAZ1; source: E. coli (pBAD vector, codon-optimised gene), purified recombinant
A word on the Kd: it is a measure of binding affinity in units of concentration. Turning to B1, the Kd was 40 nM in assay [1], 22 nM in assay [2], 39 nM in assay [3] and 57 nM in assay [4].

The values above are taken from publication PMC9636422, “AZIN1 RNA editing alters protein interactions, leading to nuclear translocation and worse outcomes in prostate cancer” (Experimental & Molecular Medicine, 2022).
